Test results: publication PMC5148612, “Mechanism of cargo-directed Atg8 conjugation during selective autophagy” (eLife, 2016)

T1: Atg12~Atg5 conjugate (S. cerevisiae, UniProt P38316 1-186; Q12380 1-294, conjugated to Atg5 (Atg12~Atg5 protein conjugate) | conjugated to Atg12)
T1 construct: Atg12, S. cerevisiae; Atg5, S. cerevisiae; the two chains are covalently joined; source: E. coli Rosetta pLysS, co-expression of 6xHis-Atg5, Atg12, Atg7 and Atg10, purified
T1 sequence (looked up) 1: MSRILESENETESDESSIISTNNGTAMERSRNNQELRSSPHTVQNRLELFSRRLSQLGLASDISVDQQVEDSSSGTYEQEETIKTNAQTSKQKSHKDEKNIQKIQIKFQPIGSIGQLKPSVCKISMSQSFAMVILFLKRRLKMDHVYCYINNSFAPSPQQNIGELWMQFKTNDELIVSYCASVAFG
T1 sequence (looked up) 2: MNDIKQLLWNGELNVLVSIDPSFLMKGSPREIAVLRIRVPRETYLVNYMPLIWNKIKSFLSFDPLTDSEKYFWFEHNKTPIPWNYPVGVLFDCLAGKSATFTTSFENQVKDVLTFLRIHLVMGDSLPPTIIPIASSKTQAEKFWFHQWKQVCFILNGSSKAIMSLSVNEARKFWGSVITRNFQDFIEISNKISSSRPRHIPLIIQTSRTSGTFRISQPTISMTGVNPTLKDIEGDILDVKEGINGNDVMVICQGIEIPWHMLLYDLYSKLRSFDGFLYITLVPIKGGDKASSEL

T2: Atg12~Atg5-Atg16 complex (S. cerevisiae, UniProt P38316 1-186; Q12380 1-294; Q03818 1-150, conjugated to Atg5 (Atg12~Atg5 protein conjugate) | conjugated to Atg12)
T2 construct: Atg12, S. cerevisiae; Atg5, S. cerevisiae; Atg16, S. cerevisiae; conjugate made by co-expression with Atg7 and Atg10 (SMC131); details in Romanov et al., 2012; also called E3-like complex; source: E. coli Rosetta pLysS; Atg12~Atg5 conjugate mixed 1:1 with purified Atg16, purified by size exclusion chromatography; not shown: GST, N-terminal, cleaved; copies: + +
T2 sequence (looked up) 1: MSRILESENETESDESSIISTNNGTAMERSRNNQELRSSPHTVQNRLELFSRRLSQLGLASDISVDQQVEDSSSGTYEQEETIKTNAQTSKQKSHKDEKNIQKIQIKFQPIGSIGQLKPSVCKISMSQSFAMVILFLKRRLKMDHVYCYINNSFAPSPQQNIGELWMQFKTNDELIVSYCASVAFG
T2 sequence (looked up) 2: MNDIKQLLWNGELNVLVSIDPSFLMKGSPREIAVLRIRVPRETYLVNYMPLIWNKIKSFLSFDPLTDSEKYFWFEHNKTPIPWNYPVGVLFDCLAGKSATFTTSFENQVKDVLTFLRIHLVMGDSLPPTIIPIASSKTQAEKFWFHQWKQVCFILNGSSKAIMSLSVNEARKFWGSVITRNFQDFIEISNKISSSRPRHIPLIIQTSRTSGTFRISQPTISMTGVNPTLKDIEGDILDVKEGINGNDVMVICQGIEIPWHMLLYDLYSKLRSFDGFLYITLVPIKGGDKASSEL
T2 sequence (looked up) 3: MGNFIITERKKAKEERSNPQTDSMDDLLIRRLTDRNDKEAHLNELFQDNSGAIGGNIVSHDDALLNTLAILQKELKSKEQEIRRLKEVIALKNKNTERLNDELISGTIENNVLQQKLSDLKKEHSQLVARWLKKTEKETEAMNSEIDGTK

T3: Atg12~Atg5-Atg16-mCherry complex (S. cerevisiae, UniProt P38316 1-186; Q12380 1-294; Q03818 1-150, conjugated to Atg5 (Atg12~Atg5 protein conjugate) | conjugated to Atg12)
T3 construct: Atg12, S. cerevisiae; Atg5, S. cerevisiae; Atg16, S. cerevisiae; also called Cx; source: E. coli Rosetta pLysS; Atg12~Atg5 conjugate mixed 1:1 with purified Atg16-mCherry, purified by size exclusion chromatography; not shown: His6, N-terminal, cleaved; mCherry, C-terminal, kept; copies: + +
T3 sequence (looked up) 1: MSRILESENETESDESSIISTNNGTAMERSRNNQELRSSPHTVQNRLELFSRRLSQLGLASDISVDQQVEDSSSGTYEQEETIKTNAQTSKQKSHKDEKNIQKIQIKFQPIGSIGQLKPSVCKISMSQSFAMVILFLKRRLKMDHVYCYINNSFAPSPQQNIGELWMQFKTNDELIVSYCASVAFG
T3 sequence (looked up) 2: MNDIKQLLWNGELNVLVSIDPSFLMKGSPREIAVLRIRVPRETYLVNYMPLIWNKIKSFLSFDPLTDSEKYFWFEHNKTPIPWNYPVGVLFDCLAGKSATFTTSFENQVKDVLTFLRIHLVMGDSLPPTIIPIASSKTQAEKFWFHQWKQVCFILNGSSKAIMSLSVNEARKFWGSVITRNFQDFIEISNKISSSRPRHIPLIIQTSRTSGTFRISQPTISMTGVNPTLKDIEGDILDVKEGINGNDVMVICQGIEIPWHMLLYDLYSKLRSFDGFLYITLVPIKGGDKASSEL
T3 sequence (looked up) 3: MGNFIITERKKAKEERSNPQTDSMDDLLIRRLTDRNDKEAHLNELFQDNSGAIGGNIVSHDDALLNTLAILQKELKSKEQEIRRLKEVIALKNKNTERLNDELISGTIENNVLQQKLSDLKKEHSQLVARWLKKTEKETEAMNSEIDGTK

T4: Atg12~Atg5 (K57E) conjugate (S. cerevisiae, UniProt P38316 1-186; Q12380 1-294, K57E, conjugated to Atg5 | conjugated to Atg12)
T4 construct: Atg12, S. cerevisiae; Atg5, S. cerevisiae; source: E. coli Rosetta pLysS, purified
T4 sequence (looked up) 1: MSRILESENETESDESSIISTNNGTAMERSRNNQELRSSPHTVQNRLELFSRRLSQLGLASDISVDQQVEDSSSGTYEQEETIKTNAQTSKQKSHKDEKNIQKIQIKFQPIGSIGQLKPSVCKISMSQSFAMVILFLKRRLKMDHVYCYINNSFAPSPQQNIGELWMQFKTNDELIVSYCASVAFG
T4 sequence (looked up) 2: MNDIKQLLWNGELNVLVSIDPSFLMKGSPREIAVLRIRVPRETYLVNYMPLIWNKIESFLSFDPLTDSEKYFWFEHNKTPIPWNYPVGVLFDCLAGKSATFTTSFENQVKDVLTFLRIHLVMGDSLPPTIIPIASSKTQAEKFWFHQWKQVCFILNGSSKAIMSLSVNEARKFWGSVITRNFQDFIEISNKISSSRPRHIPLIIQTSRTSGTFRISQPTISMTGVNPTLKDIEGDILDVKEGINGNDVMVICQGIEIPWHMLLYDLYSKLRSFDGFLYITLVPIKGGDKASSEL

T5: Atg12~Atg5 (N84E) conjugate (S. cerevisiae, UniProt P38316 1-186; Q12380 1-294, N84E, conjugated to Atg5 | conjugated to Atg12)
T5 construct: Atg12, S. cerevisiae; Atg5, S. cerevisiae; source: E. coli Rosetta pLysS, purified
T5 sequence (looked up) 1: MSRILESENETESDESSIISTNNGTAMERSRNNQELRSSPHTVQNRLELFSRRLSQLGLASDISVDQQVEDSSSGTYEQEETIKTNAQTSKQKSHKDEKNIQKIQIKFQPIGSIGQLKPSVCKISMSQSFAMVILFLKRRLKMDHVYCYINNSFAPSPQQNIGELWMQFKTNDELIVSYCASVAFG
T5 sequence (looked up) 2: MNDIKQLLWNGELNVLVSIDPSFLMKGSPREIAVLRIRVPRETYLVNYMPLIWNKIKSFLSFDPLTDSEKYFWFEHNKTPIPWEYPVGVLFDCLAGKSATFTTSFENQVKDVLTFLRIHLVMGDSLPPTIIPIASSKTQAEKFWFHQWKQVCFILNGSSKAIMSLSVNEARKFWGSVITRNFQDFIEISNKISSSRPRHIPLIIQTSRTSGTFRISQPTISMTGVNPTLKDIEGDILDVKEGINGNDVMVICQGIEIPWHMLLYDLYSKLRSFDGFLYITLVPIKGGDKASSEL

T6: Atg12~Atg5 (K57E,N84E) conjugate (S. cerevisiae, UniProt P38316 1-186; Q12380 1-294, K57E | N84E, conjugated to Atg5 | conjugated to Atg12)
T6 construct: Atg12, S. cerevisiae; Atg5, S. cerevisiae; source: E. coli Rosetta pLysS, purified
T6 sequence (looked up) 1: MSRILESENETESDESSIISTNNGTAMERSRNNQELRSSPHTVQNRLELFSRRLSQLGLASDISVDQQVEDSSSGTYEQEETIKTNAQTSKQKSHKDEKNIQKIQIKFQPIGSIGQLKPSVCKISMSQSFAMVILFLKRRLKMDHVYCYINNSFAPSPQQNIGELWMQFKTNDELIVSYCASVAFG
T6 sequence (looked up) 2: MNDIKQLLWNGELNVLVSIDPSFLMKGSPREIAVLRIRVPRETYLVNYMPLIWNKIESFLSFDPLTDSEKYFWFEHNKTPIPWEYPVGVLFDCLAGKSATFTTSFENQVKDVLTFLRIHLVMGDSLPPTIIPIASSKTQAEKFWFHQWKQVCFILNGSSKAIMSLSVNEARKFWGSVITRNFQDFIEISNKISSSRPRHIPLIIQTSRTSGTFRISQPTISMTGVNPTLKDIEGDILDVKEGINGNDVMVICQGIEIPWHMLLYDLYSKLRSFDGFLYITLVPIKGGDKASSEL


Key:
Settings in all cases: both partners purified
Atg12~Atg5 conjugate [1] = target: T1, Atg12~Atg5 conjugate; experiment: pull-down; GST-fused bait 5 µM and GST-free prey 5 µM with glutathione Sepharose 4B, 1 hr at 4°C; washed with 25 mM HEPES pH 7.5, 150 mM NaCl, 1 mM DTT and 0.1% TritonX100; Western blot (Figures 1A, 1C, 2A, 2C)
Atg12~Atg5-Atg16 complex = target: T2, Atg12~Atg5-Atg16 complex; experiment: as above
[2] = target: T3, Atg12~Atg5-Atg16-mCherry complex; experiment: microscopy-based protein-protein interaction assay on beads; glutathione beads coated with GST baits at 20 µM, Atg12~Atg5-Atg16-mCherry 5 µM, 25 mM HEPES pH 7.5, 150 mM NaCl, 1 mM DTT, imaged at equilibrium by spinning disc microscopy (Figures 1B, 2F, 2G)
Atg12~Atg5 conjugate [3] = target: T1, Atg12~Atg5 conjugate; experiment: SEC; separately purified proteins mixed in a molar ratio 1:1 for 30 min at 4°C or on ice; the resulting complex purified on Superdex S200 16/60
[4] = target: T4, Atg12~Atg5 (K57E) conjugate; experiment: as above
[5] = target: T5, Atg12~Atg5 (N84E) conjugate; experiment: as above
[6] = target: T6, Atg12~Atg5 (K57E,N84E) conjugate; experiment: as above

Row | binding result (Atg12~Atg5 conjugate [1]) | binding result (Atg12~Atg5-Atg16 complex) | binding result [2] | binding result (Atg12~Atg5 conjugate [3]) | binding result [4] | binding result [5] | binding result [6] | Binder
1 | binds | binds | binds | – | – | – | – | GST-Atg19 (natural protein, S. cerevisiae, UniProt P35193 1-415, looked up, Atg19, S. cerevisiae cargo receptor; also called full length GST-Atg19; Atg19 full length; source: E. coli Rosetta pLysS, purified; not shown: GST, N-terminal, kept) MNNSKTNQQMNTSMGYPLTVYDECNKFQLIVPTLDANIMLWCIGQLSLLNDSNGCKHLFWQPNDKSNVRILLNNYDYGHLFKYLQCQRKCSVYIGEGTLKKYNLTISTSFDNFLDLTPSEEKESLCREDAHEDPVSPKAGSEEEISPNSTSNVVVSRECLDNFMKQLLKLEESLNKLELEQKVTNKEPNHRISGTIDIPEDRSELVNFFTELKTVKQLEDVFQRYHDYERLSQECDSKTEIASDHSKKETKIEVEPPNERSLQITMNQRDNSLYFQLFNNTNSVLAGNCKLKFTDAGDKPTTQIIDMGPHEIGIKEYKEYRYFPYALDLEAGSTIEIENQYGEVIFLGKYGSSPMINLRPPSRLSAESLQASQEPFYSFQIDTLPELDDSSIISTSISLSYDGDDNEKALTWEEL
2 | – | – | – | binds | binds | binds | binds | Atg16-mCherry (natural protein, S. cerevisiae, UniProt Q03818 1-150, looked up, Atg16, S. cerevisiae; also called 6xHis-Atg16-mCherry; source: E. coli Rosetta pLysS, purified (Ni-NTA, TEV, Superdex 200); not shown: His6, N-terminal, cleaved; mCherry, C-terminal, kept) MGNFIITERKKAKEERSNPQTDSMDDLLIRRLTDRNDKEAHLNELFQDNSGAIGGNIVSHDDALLNTLAILQKELKSKEQEIRRLKEVIALKNKNTERLNDELISGTIENNVLQQKLSDLKKEHSQLVARWLKKTEKETEAMNSEIDGTK
